Experimental findings from PMC3369541 (Methods in Molecular Biology (Clifton, N.j.), 2012) are described below.

The assay concerns the target T1, FUS1 peptide (wild-type PDZ protein-binding motif).
T1 peptide: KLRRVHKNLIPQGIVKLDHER
The experiment in a line: ProteinChip array with SELDI-TOF mass spectrometry.

Regarding LGILYILQTLE [Apaf1 peptide (PDZ protein-binding motif)], the binding result is given as “binds”.
